“Also recorded” adds a separate entry of the source.
Key:
human lysozyme [1] = test: POD-labeled human lysozyme binding to immobilized β-APP forms (spot blot); settings: 10 μg spotted; POD-HuLYS diluted 1/1000
Description: To test whether the β-APP protein binds huLYS, we performed lysozyme binding assays using purified, recombinant forms of β-APP. Both sAPPα (product number: S9564) and sAPPα (302-612) (product number: S8065) were purchased from Sigma-Aldrich (Tres cantos, Madrid, Spain). 10 μg of each protein was spotted onto a Nytran membrane (Scleicher & Schüell, Dassel, Germany). Non-specific adsorption sites were blocked by incubation for one hour in TBST-milk. After three washes with TBST, the membrane was incubated for one hour with horse radish peroxidase (POD)-labeled human lysozyme diluted 1/1000 in TBST-milk. Next, the membrane was washed three times, for 5 minutes each wash, with TBST. Staining was performed by adding 5 ml of POD chromogenic substrate (TMB, product number: T0565, Sigma). […] Moreover, the β-APP/huLYS protein complex likely serves as a diagnostic marker of Alzheimer's disease.

[2] = tested on: Micrococcus lysodeikticus; settings: pH 6.24, 25° C, Micrococcus lysodeikticus substrate; cited from earlier work
[3] = molecular target: T1, LISOZIMA CHIESI (chicken lysozyme) (Gallus gallus, UniProt P00698); test: Inhibition of commercial chicken lysozyme preparation (EnzCheck); type: biochemical; settings: lysozyme 4 μg/ml; molar ratio 1:5 to 1:50 GST-Tp17
T1 construct: natural hen egg-derived chicken lysozyme used in commercially available medicinal preparations; purchased CHIESI ESPAÑA SA, Barcelona, Spain
Description: (§1) Chicken Lysozyme is a potent antimicrobial enzyme active against both bacteria and viruses. Commercial preparations that contain Lysozyme as an active agent include, but are not limited to, LIZIPAINA® (Boehringer Ingelheim, San Cugat del Vallés, Spain) and LISOZIMA CHIESI (CHIESI ESPAÑA SA, Barcelona, Spain). […] To test this hypothesis, one tablet of each drug, LIZIPAINA® (containing 5 mg chicken lysozyme per tablet) and LISOZIMA CHIESI (containing 250 mg chicken lysozyme per tablet), was resuspended in deionized water (The Millipore Corporation, Bedford, Mass., USA) to adjust the Lysozyme concentration to 4 μg/ml. These samples were then incubated in absence or in presence of increasing amount of either GST-Tp17 or Tp17-HIS. In this experiment the molar ratio between chicken lysozyme and its cognate inhibitor was varied from 1:5 to 1:50 for GST-Tp17 and from 1:16 to 1:160 for Tp17-HIS. After an incubation period of 5 minutes at 20° C. the samples were assayed for lysozyme enzymatic activity using the EnzCheck® Lysozyme assay kit (E-22013; Molecular Probes Inc., Eugene, Oreg., USA) as recommended by the supplier guidelines.

[4] = molecular target: T2, LIZIPAINA (chicken lysozyme) (Gallus gallus, UniProt P00698); test: as above; type: biochemical; settings: lysozyme 4 μg/ml; molar ratio 1:5 to 1:50 GST-Tp17, 1:16 to 1:160 Tp17-HIS
T2 construct: natural hen egg-derived chicken lysozyme used in commercially available medicinal preparations; purchased Boehringer Ingelheim, San Cugat del Vallés, Spain
Description: as §1

human lysozyme [5] = test: Far Western blot lysozyme-protein interaction assay; type: binding; settings: 1, 5, 10 μg immobilized lysozyme; washes with 0.05% Tween 20
Description: (§2) In order to test this hypothesis, a Far-Western blot lysozyme-protein interaction assay was performed. The assay is summarized in FIG. 5 and comprises generally the following three steps: (1) immobilization of purified lysozyme onto a membrane; (2) probing of the membrane with a ligand likely to bind directly to the lysozyme; and (3) immunodetection of the bound lysozyme-ligand. A detailed experimental procedure is presented below.
(§3) Purified chicken egg white lysozyme and human breast milk lysozyme were purchased from Sigma-Aldrich (Madrid, Spain). Two series of aliquot fractions containing 1 μg, 5 μg, and 10 μg of purified lysozyme and a protein molecular weight marker (SeeBlue Plus II™, Invitrogen SA, Barcelona, Spain) were separated electrophoretically through a 4-12% SDS-PAGE gel using the conditions recommended by the supplier (Invitrogen). The gel was then processed for Western blotting as described in Sambrook et al. (1989) according to art known methods, and the proteins were electro-transferred to an Immobilon™ P PVDF membrane (Millipore Corp., Bedford, Mass.). The presence of lysozyme immobilized onto the PVDF membrane was assessed by staining for 1 minute with Ponceau S stain (Sigma-Aldrich, Madrid, Spain), and then destained by vigorous washing for 5 minutes with desionized water. The membrane was divided in two, each portion containing a protein ladder and three quantities of chicken or human lysozyme (1 μg, 5 μg and 10 μg per lane). Each membrane was then incubated for 16 hours at 4° C. in 5 ml of TBST (10 mM Tris-HCl, pH 8.0, 150 mM NaCl, 0.05% weight/vol. Tween 20™,) supplemented with 5% (weight/vol.) of non-fat skimmed dried SVELTESSE™milk (NESTLÉ, ESPAÑA, Barcelona, Spain) (to make TBST-milk). […]

chicken lysozyme [6] = molecular target: T3, chicken lysozyme (Gallus gallus, UniProt P00698); test: as above; type: binding; settings: 1, 5, 10 μg immobilized lysozyme; washes with 0.05% Tween 20
Description: as §2, §3

human lysozyme [7] = test: Lysozyme inhibition assay (EnzCheck, fluorescein-labeled Micrococcus lysodeikticus); type: biochemical
Description: (§4) To test this hypothesis, the antibacterial activity of both human and chicken lysozyme, in the presence or absence of GST-Tp17, was assayed using an EnzCheck® lysozyme assay kit (Molecular Probes, Eugene, Oreg.). The assay comprises the use of Fluorescein-labeled Micrococcus lysodeikticus bacterial cells as a fluorescent substrate of lysozyme. In this Gram positive bacterium, the peptidoglycan layer is directly accessible to lysozyme, and has been Fluorescein-labeled such that fluorescence is naturally quenched. Upon lysozyme hydrolysis, quenching is relieved and fluorescein is released in a quantity that is proportional to lysozyme activity. The following experimental protocol was used.
(§5) A typical 100 μl reaction consisted of 25 μl of lysozyme solution (10 units for chicken lysozyme or 50 units for human lysozyme, dissolved in deionized water), 25 μl of the test protein solution and 50 μl of a suspension of fluorescein-labeled Micrococcus lysodeikticus (50 μg/ml). The reaction was incubated for 45 minutes at 37° C. and the fluorescence was measured (λexc.=485 nm; λemi.=520 nm) using a fluorescence multi-well plate reader model FLx800 (Bio TEK instruments, Winoosky, Vt.) equipped with KC junior data acquisition software (Bio TEK Instruments, Winoosky, Vt.). Each experimental point was expressed as the mean and standard deviation corresponding to the reading of three independent wells. Wells containing 50 μl of deoinized water and […] of Fluorescein-labeled Micrococcus lysodeikticus suspension were used as a blank. Two fold serial dilutions of test protein were used to vary the concentration of the test protein from 83.5 to 1.3 μg/well.

chicken lysozyme [8] = molecular target: T3, chicken lysozyme; test: as above; type: biochemical
Description: as §4, §5

[9] = mature protein; cited from earlier work
[10] = tested on: Micrococcus lysodeikticus; test: Antibacterial activity of lysozymes in presence or absence of Tp17 (EnzCheck Lysozyme assay); type: biochemical; settings: 1 unit human lysozyme or 230 units rLysozyme; 10 μg GST-Tp17 or Tp17-HIS
Description: as §4
In that context, we compared the antibacterial activity of human lysozyme (Ventria Bioscience, Sacramento, Calif., USA) and rLysozyme™ using the EnzCheck Lysozyme assay (E-22013; Molecular Probes, Eugene, Oreg.). We first determined that under the manufacturer's prescribed assay conditions, 1 unit of human lysozyme produced the same intensity of fluorescence as 230 units of rLysozyme™. Next, we measured the fluorescence intensity of either 1 unit of human lysozyme or 230 units of rLysozyme™, in the presence or absence of 10 μg of either GST-Tp17 or Tp17-HIS. […]

[11] = 83.5 to 1.3 μg/well test protein

T3 sequence (P00698 19-147): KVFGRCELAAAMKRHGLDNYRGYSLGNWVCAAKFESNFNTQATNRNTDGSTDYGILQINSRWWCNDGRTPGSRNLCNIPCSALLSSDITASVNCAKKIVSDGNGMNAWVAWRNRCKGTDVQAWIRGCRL
T2 sequence (P00698 19-147): as above
T1 sequence (P00698 19-147): as above

## sAPPα: longer recombinant fragment of β-APP derived from the APP695 isoform (Sigma S9564)
Human lysozyme [1]
  binding of POD-labeled huLYS to immobilized protein: binding; also recorded: bound

## natural human breast milk lysozyme: purified natural human breast milk lysozyme (L-6394; Sigma-Aldrich)
[2]
  specific activity: 101,000 units/mg protein

## recombinant human lysozyme: purified recombinant human lysozyme from transgenic rice (159-53LZ-90P; Ventria Bioscience)
[2]
  specific activity: 187,000 units/mg protein

## GST-Tp17: recombinant fusion protein of GST and Treponema pallidum 17 kDa antigen Tp17 (SEQ ID NO:29)
[3]
  inhibition of enzymatic antibacterial activity of LISOZIMA CHIESI: strongly inhibited
[4]
  inhibition of enzymatic antibacterial activity of LIZIPAINA: strongly inhibited
Human lysozyme [5]
  binding to human lysozyme: detected binding
Chicken lysozyme [6]
  binding to chicken lysozyme: detected binding
Human lysozyme [7]; as little as 1.3 μg/well test protein, 50 units lysozyme, 45 min 37° C
  inhibition of acetyl muramidase activity of human lysozyme: > 85%
Chicken lysozyme [8]; as little as 1.3 μg/well test protein, 10 units lysozyme, 45 min 37° C
  inhibition of acetyl muramidase activity of chicken lysozyme: > 85%

B1: E. coli Ivy: Escherichia coli inhibitor of vertebrate lysozyme (P45502) (protein)
chain: QDDLTISSLAKGETTKAAFNQMVQGHKLPAWVMKGGTYTPAQTVTLGDETYQVMSACKPHDCGSQRIAVMWSEKSNQMTGLFSTIDEKTSQEKLTWLNVNDALSIDGKTVLFAALTGSLENHPDGFNFK
[9]
  pI: 5.51

B2: GST-Tp47: control fusion protein of GST and T. pallidum Tp47 antigen (protein)
chain: CGSSHHETHYGYATLSYADYWAGELGQSRDVLLAGNAEADRAGDLDAGMFDAVSRATHGHGAFRQQFQYAVEVLGEKVLSKQETEDSRGRKKWEYETDPSVTKMVRASASFQDLGEDGEIKFEAVEGAVALADRASSFMVDSEEYKITNVKVHGMKFVPVAVPHELKGIAKEKFHFVEDSRVTENTNGLKTMLTEDSFSARKVSSMESPHDLVVDTVGTGYHSRFGSDAEASVMLKRADGSELSHREFIDYVMNFNTVRYDYYGDDASYTNLMASYGTKHSADSWWKTGRVPRISCGINYGFDRFKGSGPGYYRLTLIANGYRDVVADVRFLPKYEGNIDIGLKGKVLTIGGADAETLMDAAVDVFADGQPKLVSDQAVSLGQNVLSADFTPGTEYTVEVRFKEFGSVRAKVVAQ
modifications: left off: a dimerising Fc or GST
notes: control fusion protein of GST and T. pallidum Tp47 antigen
Human lysozyme [5]
  binding to human lysozyme: No signal was detected
Chicken lysozyme [6]
  binding to chicken lysozyme: No signal was detected
Human lysozyme [7]; [11]
  inhibitory effect on human lysozyme acetyl muramidase activity: did not exert any inhibitory effect
Chicken lysozyme [8]; [11]
  inhibitory effect on chicken lysozyme acetyl muramidase activity: did not exert any inhibitory effect

B3: Tp17-HIS: recombinant mature Tp17 (residues 23 to 156) with histidine tail, expressed in E. coli EcBK633 (protein)
chain: VSCTTVCPHAGKAKAEKVECALKGGIFRGTLPAADCPGIDTTVTFNADGTAQKVELALEKKSAPSPLTYRGTWMVREDGIVELSLVSSEQSKAPHEKELYELIDSNSVRYMGAPGAGKPSKEMAPFYVLKKTKK
modifications: left off: small tags and cut ends
notes: recombinant mature Tp17 (residues 23 to 156) with histidine tail, expressed in E. coli EcBK633
[4]
  inhibition of enzymatic antibacterial activity of LIZIPAINA: strongly inhibited

B4: human lysozyme: human lysozyme (NP_000230); breast milk (Sigma) or recombinant (Ventria) depending on the example (protein)
chain: KVFERCELARTLKRLGMDGYRGISLANWMCLAKWESGYNTRATNYNAGDRSTDYGIFQINSRYWCNDGKTPGAVNACHLSCSALLQDNIADAVACAKRVVRDPQGIRAWVAWRNRCQNRDVRQYVQGCGV
[10]
  susceptibility of antibacterial activity to inhibition by GST-Tp17 or Tp17-HIS: strongly inhibited
